The values below come from paper PMC3582384 (Biochemistry, 2013).

Assay [1] has as its target LOV domain protein of Rhodobacter sphaeroides (RsLOV), wild type (Rhodobacter sphaeroides ATCC 17025). The experiment in a line: SEC.
For a further assay, the target named is RsLOV (Cereibacter sphaeroides, UniProt M1E1F8). The assay is described as follows: X-ray crystallography. It counts as binding. Conditions: dark state, noncovalent; 1.9 Å.
Assay [2] has as its target A138Y RsLOV variant (Rhodobacter sphaeroides ATCC 17025). The assay is described as follows: SEC. (In gel filtration, larger molecules generally elute earlier.)

For orientation: stoichiometry N means the number of molecules, sites or subunits per partner or assembly. Turning to “LOV domain protein of Rhodobacter sphaeroides (RsLOV), wild type (natural protein)”, in assay [1], the stoichiometry N worked out at 2. For the compound `Cc1cc2nc3c(=O)[nH]c(=O)nc-3n(C[C@H](O)[C@H](O)[C@H](O)COP(=O)(O)O)c2cc1C` [FMN], the X-ray crystallography entry on RsLOV was “The Val32 side chain does not extend as far into the FMN pocket as Leu”. In the case of A138Y RsLOV variant (natural protein), the stoichiometry N in assay [2] was found to be 2.
